± gives the standard deviation of the averaged measurements. Some results are limits rather than exact numbers.

The nature of the series: total protein half-life in vivo (active degradation + dilution); higher = more stable protein.
[1] abbreviates: E. coli NCM3722 delta-clpP delta-lon delta-hslV, growth: N-lim chemostat, doubling time 6 h.
[2] abbreviates: E. coli NCM3722 delta-clpP, growth: N-lim chemostat, doubling time 6 h.
The mark [3] stands for this setting: E. coli NCM3722 delta-hslV, growth: N-lim chemostat, doubling time 6 h.
[4] abbreviates: E. coli NCM3722 delta-lon, growth: N-lim chemostat, doubling time 6 h.
Setting [5] is: E. coli NCM3722 delta-smpB, growth: N-lim chemostat, doubling time 6 h.
Where [6] appears, read: wild type E. coli NCM3722, growth: C-lim chemostat, doubling time 3 h.
[7] abbreviates: wild type E. coli NCM3722, growth: C-lim chemostat, doubling time 6 h.
Where [8] appears, read: wild type E. coli NCM3722, growth: C-lim chemostat, doubling time 12 h.
Where [9] appears, read: wild type E. coli NCM3722, growth: N-lim chemostat, doubling time 6 h.
Setting [10] is: wild type E. coli NCM3722, growth: N-lim chemostat, doubling time 12 h.
Setting [11] is: wild type E. coli NCM3722, growth: P-lim chemostat, doubling time 6 h.
Where [12] appears, read: wild type E. coli NCM3722, growth: P-lim chemostat, doubling time 12 h.

For the substance “MSKTIATENAPAAIGPYVQGVDLGNMIITSGQIPVNPKTGEVPADVAAQARQSLDNVKAIVEAAGLKVGDIVKTTVFVKDLNDFATVNATYEAFFTEHNATFPARSCVEVARLPKDVKIEIEAIAVRR [P0AF93]”, the “total protein half-life in vivo” value reads like this: under setting [1], 6.26 ± 0.82 h; under setting [2], 5.12 ± 0.65 h; under setting [3], 5.28 ± 0.082 h; under setting [4], 5.91 ± 0.21 h; under setting [5], 5.15 ± 0.68 h; under setting [6], 3.16 ± 0.28 h. Also, the “total protein half-life in vivo” value is 5.56 ± 0.15 h under setting [7]; 10.8 ± 1.1 h under setting [8]; 4.88 ± 0.16 h under setting [9]; 8.99 ± 0.37 h under setting [10]; 5.694 ± 0.0093 h under setting [11]; 12.8 ± 0.61 h under setting [12].

Take “MIKTTPHKIVILMGILLSPSVFATDINVEFTATVKATTCNITLTGNNVTNDGNNNYTLRIPKMGLDKIANKTTESQADFKLVASGCSSGISWIDTTLTGNASSSSPKLIIPQSGDSSSTTSNIGMGFKKRTTDDATFLKPNSAEKIRWSTDEMQPDKGLEMTVALRETDAGQGVPGNFRALATFNFIYQ”: the “total protein half-life in vivo” value under setting [8] worked out at 10.5 h.

Consider P76578, for which the “total protein half-life in vivo” value under setting [1] was determined as 6.589 ± 0.03 h; the “total protein half-life in vivo” value under setting [3] was 6.54 ± 0.12 h; the “total protein half-life in vivo” value under setting [4] worked out at 6.81 ± 0.67 h; the “total protein half-life in vivo” value under setting [5] was 6.09 ± 0.11 h; the “total protein half-life in vivo” value under setting [6] is 3.08 ± 0.13 h; the “total protein half-life in vivo” value under setting [7] stood at 6.17 ± 0.39 h. Moreover, the “total protein half-life in vivo” value under setting [8] was 13.4 ± 0.82 h; the “total protein half-life in vivo” value under setting [9] was found to be 6.17 ± 0.06 h; the “total protein half-life in vivo” value under setting [10] was determined as 13.1 ± 0.32 h; the “total protein half-life in vivo” value under setting [11] was found to be 6.16 ± 0.085 h; the “total protein half-life in vivo” value under setting [12] was 12.7 ± 0.14 h.

Take “MLELNAKTTALVVIDLQEGILPFAGGPHTADEVVNRAGKLAAKFRASGQPVFLVRVGWSADYAEALKQPVDAPSPAKVLPENWWQHPAALGATDSDIEIIKRQWGAFYGTDLELQLRRRGIDTIVLCGISTNIGVESTARNAWELGFNLVIAEDACSAASAEQHNNSINHIYPRIARVRSVEEILNAL [P0ADI7]”: the “total protein half-life in vivo” value came out at 5.53 ± 0.15 h under setting [1]; 5.05 ± 0.3 h under setting [2]; 4.968 ± 0.024 h under setting [3]; 5.08 ± 0.54 h under setting [5]; 3.07 ± 0.33 h under setting [6]; 5.75 ± 0.29 h under setting [7]. Besides, the “total protein half-life in vivo” value runs as follows: under setting [8], 10.9 ± 0.94 h; under setting [9], 5.19 ± 0.59 h; under setting [10], 9.838 ± 0.087 h; under setting [11], 5.81 ± 0.12 h; under setting [12], 12.7 ± 0.69 h.

Turning to “MKKPNHSGSGQIRIIGGQWRGRKLPVPDSPGLRPTTDRVRETLFNWLAPVIVDAQCLDCFAGSGALGLEALSRYAAGATLIEMDRAVSQQLIKNLATLKAGNARVVNSNAMSFLAQKGTPHNIVFVDPPFRRGLLEETINLLEDNGWLADEALIYVESEVENGLPTVPANWSLHREKVAGQVAYRLYQREAQGESDAD [P0ADX9]”, the “total protein half-life in vivo” value by setting is: under setting [1], 5.34 ± 0.45 h; under setting [2], 4.8 ± 0.15 h; under setting [3], 4.49 ± 0.13 h; under setting [4], 5.32 ± 0.09 h; under setting [5], 5.18 ± 0.6 h; under setting [6], 3.08 ± 0.15 h. Besides, the “total protein half-life in vivo” value worked out at 5.57 ± 0.19 h under setting [7]; 10.1 ± 1.5 h under setting [8]; 4.49 ± 0.68 h under setting [9]; 12.5 h under setting [10]; 5.1 ± 0.26 h under setting [11]; 11.1 ± 0.63 h under setting [12].

Consider “MSQETPASTTEAQIKNKRRISPFWLLPFIALMIASWLIWDSYQDRGNTVTIDFMSADGIVPGRTPVRYQGVEVGTVQDISLSDDLRKIEVKVSIKSDMKDALREETQFWLVTPKASLAGVSGLDALVGGNYIGMMPGKGKEQDHFVALDTQPKYRLDNGDLMIHLQAPDLGSLNSGSLVYFRKIPVGKVYDYAINPNKQGVVIDVLIERRFTDLVKKGSRFWNVSGVDANVSISGAKVKLESLAALVNGAIAFDSPEESKPAEAEDTFGLYEDLAHSQRGVIIKLELPSGAGLTADSTPLMYQGLEVGQLTKLDLNPGGKVTGEMTVDPSVVTLLRENTRIELRNPKLSLSDANLSALLTGKTFELVPGDGEPRKEFVVVPGEKALLHEPDVLTLTLTAPESYGIDAGQPLILHGVQVGQVIDRKLTSKGVTFTVAIEPQHRELVKGDSKFVVNSRVDVKVGLDGVEFLGASASEWINGGIRILPGDKGEMKASYPLYANLEKALENSLSDLPTTTVSLSAETLPDVQAGSVVLYRKFEVGEVITVRPRANAFDIDLHIKPEYRNLLTSNSVFWAEGGAKVQLNGSGLTVQASPLSRALKGAISFDNLSGASASQRKGDKRILYASETAARAVGGQITLHAFDAGKLAVGMPIRYLGIDIGQIQTLDLITARNEVQAKAVLYPEYVQTFARGGTRFSVVTPQISAAGVEHLDTILQPYINVEPGRGNPRRDFELQEATITDSRYLDGLSIIVEAPEAGSLGIGTPVLFRGLEVGTVTGMTLGTLSDRVMIAMRISKRYQHLVRNNSVFWLASGYSLDFGLTGGVVKTGTFNQFIRGGIAFATPPGTPLAPKAQEGKHFLLQESEPKEWREWGTALPK”, for which the “total protein half-life in vivo” value runs as follows: under setting [1], 6.34 ± 0.49 h; under setting [2], 6.12 ± 0.52 h; under setting [3], 6.516 ± 0.036 h; under setting [4], 6.06 ± 0.19 h; under setting [5], 6.04 ± 0.27 h; under setting [6], 3.01 ± 0.3 h. The “total protein half-life in vivo” value is 6.32 ± 0.48 h under setting [9], 13.1 ± 0.76 h under setting [10], 6.43 ± 0.74 h under setting [11] and 13.5 ± 0.26 h under setting [12].

As to “MTLLGTALRPAATRVMLLGSGELGKEVAIECQRLGVEVIAVDRYADAPAMHVAHRSHVINMLDGDALRRVVELEKPHYIVPEIEAIATDMLIQLEEEGLNVVPCARATKLTMNREGIRRLAAEELQLPTSTYRFADSESLFREAVADIGYPCIVKPVMSSSGKGQTFIRSAEQLAQAWKYAQQGGRAGAGRVIVEGVVKFDFEITLLTVSAVDGVHFCAPVGHRQEDGDYRESWQPQQMSPLALERAQEIARKVVLALGGYGLFGVELFVCGDEVIFSEVSPRPHDTGMVTLISQDLSEFALHVRAFLGLPVGGIRQYGPAASAVILPQLTSQNVTFDNVQNAVGADLQIRLFGKPEIDGSRRLGVALATAESVVDAIERAKHAAGQVKVQG”, the “total protein half-life in vivo” value under setting [1] came to 5.17 ± 0.51 h; the “total protein half-life in vivo” value under setting [2] was determined as 4.76 ± 0.66 h; the “total protein half-life in vivo” value under setting [3] stood at 4.361 ± 0.017 h; the “total protein half-life in vivo” value under setting [4] was found to be 4.5 ± 0.32 h; the “total protein half-life in vivo” value under setting [5] stood at 4.11 ± 0.3 h; the “total protein half-life in vivo” value under setting [6] was 3.033 ± 0.014 h. Besides, the “total protein half-life in vivo” value is, setting by setting: under setting [7], 5.96 ± 0.31 h; under setting [8], 10.2 ± 0.59 h; under setting [9], 4.28 ± 0.2 h; under setting [10], 6.95 ± 0.21 h; under setting [11], 6.14 ± 0.1 h; under setting [12], 10.1 ± 0.19 h.

As for “MKREEIADLMAFVVVAEERSFTRAAARLSMAQSALSQIVRRIEERLGLRLLTRTTRSVVPTEAGEHLLSVLGPMLHDIDSAMASLSDLQNRPSGTIRITTVEHAAKTILLPAMRTFLKSHPEIDIQLTIDYGLTDVVSERFDAGVRLGGEMDKDMIAIRIGPDIPMAIVGSPDYFSRRSVPTSVSQLIDHQAINLYLPTSGTANRWRLIRGGREVRVRMEGQLLLNTIDLIIDAAIDGHGLAYLPYDQVERAIKEKKLIRVLDKFTPDLPGYHLYYPHRRHAGSAFSLFIDRLKYKGAV”, the “total protein half-life in vivo” value under setting [1] stood at 5.34 ± 0.45 h; the “total protein half-life in vivo” value under setting [3] was greater than 8 h; the “total protein half-life in vivo” value under setting [4] was determined as 6.34 h; the “total protein half-life in vivo” value under setting [5] was 6.01 ± 1.5 h; the “total protein half-life in vivo” value under setting [6] was determined as 2.929 ± 0.019 h; the “total protein half-life in vivo” value under setting [9] amounted to 5.238 ± 0.043 h. Also, the “total protein half-life in vivo” value is 11.7 h under setting [10], 5.36 h under setting [11] and 9.19 ± 3.4 h under setting [12].

“MPQQIELRNIALQAAQPLVHGVSLTLQRGRVLALVGGSGSGKSLTCAATLGILPAGVRQTAGEILADGKPVSPCALRGIKIATIMQNPRSAFNPLHTMHTHARETCLALGKPADDATLTAAIEAVGLENAARVLKLYPFEMSGGMLQRMMIAMAVLCESPFIIADEPTTDLDVVAQARILDLLESIMQKQAPGMLLVTHDMGVVARLADDVAVMSDGKIVEQGDVETLFNAPKHTVTRSLVSAHLALYGMELAS”: the “total protein half-life in vivo” value under setting [1] was 4.47 h.
